Measurements published in article PMC6736072 (Nucleic Acids Research, 2019).

Target: T1, His-MAD1 (recombinant, not phosphorylated by ULK1) (human, UniProt Q9Y6D9 1-718)
T1 sequence: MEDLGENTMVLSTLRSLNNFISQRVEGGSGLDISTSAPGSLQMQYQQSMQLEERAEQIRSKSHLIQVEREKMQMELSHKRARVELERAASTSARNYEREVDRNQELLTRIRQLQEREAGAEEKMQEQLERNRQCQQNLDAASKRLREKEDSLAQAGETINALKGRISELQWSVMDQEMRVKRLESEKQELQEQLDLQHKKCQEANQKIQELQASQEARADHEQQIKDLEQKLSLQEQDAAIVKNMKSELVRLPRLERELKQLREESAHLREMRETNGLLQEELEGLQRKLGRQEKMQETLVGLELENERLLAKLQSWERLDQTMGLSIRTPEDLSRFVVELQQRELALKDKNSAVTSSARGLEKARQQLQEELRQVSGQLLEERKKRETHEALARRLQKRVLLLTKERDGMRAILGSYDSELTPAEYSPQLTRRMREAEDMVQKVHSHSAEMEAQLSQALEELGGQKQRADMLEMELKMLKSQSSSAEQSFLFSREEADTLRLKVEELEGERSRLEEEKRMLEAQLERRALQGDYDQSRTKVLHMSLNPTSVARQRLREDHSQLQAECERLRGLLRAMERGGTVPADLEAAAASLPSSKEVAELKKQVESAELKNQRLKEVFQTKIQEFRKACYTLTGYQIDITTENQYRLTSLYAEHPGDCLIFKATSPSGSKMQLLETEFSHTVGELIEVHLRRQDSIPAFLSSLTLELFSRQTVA
Assay: pull-down

B1: human FLAG-BUB1-(437-509), phosphorylated in vitro (domain or fragment)
chain: SFHTTPNTSLGMVQATPSKVQPSPTVHTKEALGFIMNMFQAPTLPDISDDKDEWQSLDQNEDAFEAQFQKNVR
**Q.** Does B1 bind?
**A.** Result: binds
